# Measurements: patent US20060141460A1, “Assays for fprl-1 ligands” (AstraZeneca A B, priority 2002, published 2006)
# Several values for one entry are separate records, joined by “and”; a condition that tells them apart may be missing. Equal values may be shown once. Read-outs that look alike come from different tables or passages of the source. Where no end group is shown, it is not given here.
# T1: FPRL-1 (Homo sapiens, UniProt P25090)
# T1 sequence (P25090 1-351): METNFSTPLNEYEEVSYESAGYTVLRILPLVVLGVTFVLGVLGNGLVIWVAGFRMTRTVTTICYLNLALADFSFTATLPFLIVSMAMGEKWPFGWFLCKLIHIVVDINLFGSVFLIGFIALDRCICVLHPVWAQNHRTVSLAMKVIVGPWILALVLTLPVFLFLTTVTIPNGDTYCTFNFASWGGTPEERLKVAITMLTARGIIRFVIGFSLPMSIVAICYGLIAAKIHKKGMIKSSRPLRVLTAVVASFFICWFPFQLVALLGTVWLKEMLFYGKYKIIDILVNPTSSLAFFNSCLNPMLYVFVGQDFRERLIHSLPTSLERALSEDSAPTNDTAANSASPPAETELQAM
# B1: Serum Amyloid A protein (SAA) (ligand, UniProt P0DJI8 19-122, looked up, species assumed)
# Serum amyloid A-1 protein: RSFFSFLGEAFDGARDMWRAYSDMREANYIGSDKYFHARGNYDAAKRGPGGAWAAEVITDARENIQRFFGHGAEDSLADQAANEWGRSGKDPNHFRPAGLPEKY
# Key:
# FPRL-1 [1] = target: T1, FPRL-1; experiment: [125I]-W-peptide (WKYMVm) displacement on membranes from CHO cells stably expressing FPRL-1; format: binding
# FPRL-1 [2] = target: T1, FPRL-1; format: cell-based
# Method: A stable receptor pool of FPRL-1 was developed by applying an antibiotic selection (G418, 1 mg/ml) and the cells were maintained in this selection medium.
# A functional assay was performed with FLIPR (Fluorescent Imaging Plate Reader, Molecular Devices, Sunnyvale, Calif.) using the fluorescent calcium indicator Fluo-3 (Molecular Probes, Inc., Eugene, Oreg.) on a 96-well platform. […] On the day of the experiment, the FPRL-1-transfected cells were loaded with fluorescent solution (Dulbecco's modified medium containing 4 μM Fluo-3 and 20% pluronic acid). The cells were incubated at 37° C. for one hour in a humidified chamber. Following the incubation step, cells were washed five times in Hanks' with 20 mM Hepes and 0.1% BSA (pH 7.4). The cells were analyzed using the FLIPR system to measure the mobilization of intracellular calcium in response to different compounds.
# Cell lines transiently expressing human FPRL-1 were stimulated with compounds, and calcium responses were compared to parental cells.
# PMNs [3] = experiment: [Ca2+]i mobilization in PMNs (FLIPR); format: cell-based, human; conditions: n as in cell
# Text: Neutrophils play a pivotal role in the innate immune response to infection. Since these cells express FPRL-1, we evaluated the effect of CKβ8-1 (aa46-137) on PMNs calcium mobilization using the FLIPR system.
# FPRL-1 [4] = target: T1, FPRL-1; experiment: Inhibition of forskolin-stimulated cAMP accumulation (adenylyl cyclase) in CHO cells expressing FPRL-1; format: cell-based; conditions: n as in cell
# PMNs [5] = experiment: PMNs chemotaxis; format: cell-based, human
# Method: The physiological relevance of CKβ8-1 (aa46-137) as a ligand for FPRL-1 was assessed by PMNs chemotaxis experiments.
# FPRL-1 [6] = target: T1, FPRL-1; format: cell-based; remark: listed apart in the source
# [7] = target: human formyl peptide receptor-like-1 (FPRL-1) receptor (human) (UniProt P25090); experiment: cell-based or functional assay
# [8] = target: human formyl peptide receptor-like-1 (FPRL-1) receptor (human) (UniProt P25090); experiment: displacement of [125I]-WKYMVm from membranes of CHO cells stably expressing FPRL-1 (n = 3)
# [9] = target: human formyl peptide receptor-like-1 (FPRL-1) receptor (human) (UniProt P25090); experiment: cell-based or functional assay; remark: listed apart in the source
# [10] = CHO cells co-expressing Gα16 and FPRL-1, mean±s.e. mean
# [11] = calcium mobilization, cells co-expressing Gα16 and FPRL-1
molecule,measurement,setting,value
"CCCCC[C@H](O)/C=C/C=C\C=C\C=C\[C@@H](O)[C@@H](O)CCCC(=O)O [Lipoxin A4 (LXA4), Lipoxin A4]",[125I]-W-peptide (WKYMVm) Displacement pIC50 (n = 3),FPRL-1 [1],inactive
same,Intracellular Ca2+ mobilization pEC50 (n = 3),FPRL-1 [2]; [10],<6.0
same,pEC50,PMNs [3],inactive (n = 4)
same,Adenylyl cylase pIC50,FPRL-1 [4],<5.7 (n = 2)
CSCC[C@H](NC(=O)[C@@H](NC(=O)[C@H](CCSC)NC(=O)[C@H](Cc1ccc(O)cc1)NC(=O)[C@H](CCCCN)NC(=O)[C@@H](N)Cc1c[nH]c2ccccc12)C(C)C)C(N)=O [W-peptide],concentration at which the maximum percentage of cell migration was reached,PMNs [5],100 nM
same,calcium response,"FPRL-1 [6]; CHO cells transiently expressing FPRL-1, absence of Gα16",consistent calcium response
same,effect of pertussis toxin (PTX) pre-treatment on ligand-induced Ca2+ response,"FPRL-1 [6]; CHO-K1 transiently expressing FPRL-1, PTX pre-treatment",completely abolished
CKβ8 (aa22-120) (from UniProt P55773 22-120) (ligand),"Intracellular Ca2+ mobilization pEC50 (n = 3), CHO cells (-log of the EC50)",[7],< 5
CKβ8 (aa46-120) (from UniProt P55773 46-120) (ligand),"Intracellular Ca2+ mobilization pEC50 (n = 3), CHO cells (-log of the EC50)",[7],< 5
CKβ8-1 (aa22-137) (from UniProt P55773 22-137) (ligand),"Intracellular Ca2+ mobilization pEC50 (n = 3), CHO cells (-log of the EC50)",[7],< 5.7
same,"fold lower potency at FPRL-1 than at CCR1, calcium mobilization",[7],200 to 300 fold
Human Prion protein (hPrP) (from UniProt P04156 106-126),"Intracellular Ca2+ mobilization pEC50 (n = 3), CHO cells (-log of the EC50)",[7],< 6
IL-8: known to activate CXCR1 and CXCR2 receptors,pEC50,PMNs [3],8.76 ± 0.24 (n = 3)
LWRRKIGPQMTLSHAAG [SHAAG peptide],EC50,"FPRL-1 [2]; Intracellular Ca2+ mobilization pEC50 (n = 3), CHO cells co-expressing Gα16 and FPRL-1, mean±s.e. mean",182 nM
same,times less potent at FPRL-1 as compared to CKβ8-1 (aa46-137),FPRL-1 [2]; [11],60 to 200 times
same,times more potent than the long form CKβ8-1(aa22-137),FPRL-1 [2]; [11],~120 times
MIP-1α: ligand tested in PMNs,pEC50,PMNs [3],inactive (n = 4)
MMK-1 (peptide),"concentration giving the maximum percentage of cell migration, PMN chemotaxis",[7],12 µM
same,"pEC50, [Ca2+]i mobilization in PMNs (-log of the EC50)",[7],7.17
SHAAG peptide,"Intracellular Ca2+ mobilization pEC50 (n = 3), CHO cells (-log of the EC50)",[7],6.74
same,"fold higher potency than CKβ8-1 (aa22-137), calcium mobilization",[7],120 fold
same,"fold lower potency than CKβ8-1 (aa46-137), calcium mobilization",[7],60 to 200 fold
recombinant human CKβ8-1 (aa46-137) (from UniProt P55773 46-137) (ligand),"Adenylyl cylase pIC50 (inhibition of forskolin-stimulated cAMP accumulation), CHO cells (-log of the IC50)",[7],9.02
same,"EC50, intracellular calcium mobilization (FLIPR), CHO cells transiently expressing hFPRL-1 in Gα16 background, n = 1",[7],0.69 nM
same,"EC50, intracellular calcium mobilization (FLIPR), CHO cells transiently expressing hFPRL-1 in Gα16 background, n = 2",[7],0.14 nM
same,"EC50, intracellular calcium mobilization (FLIPR), CHO cells transiently expressing hFPRL-1 in Gαqi5 background, n = 1",[7],2.9 nM
same,"EC50, intracellular calcium mobilization (FLIPR), CHO cells transiently expressing hFPRL-1 in Gαqi5 background, n = 2",[7],2.5 nM
same,"Emax, intracellular calcium mobilization (FLIPR), CHO cells transiently expressing hFPRL-1 in Gα16 background, n = 1",[7],4120 RFU
same,"Emax, intracellular calcium mobilization (FLIPR), CHO cells transiently expressing hFPRL-1 in Gα16 background, n = 2",[7],6330 RFU
same,"Emax, intracellular calcium mobilization (FLIPR), CHO cells transiently expressing hFPRL-1 in Gαqi5 background, n = 1",[7],4600 RFU
same,"Emax, intracellular calcium mobilization (FLIPR), CHO cells transiently expressing hFPRL-1 in Gαqi5 background, n = 2",[7],5950 RFU
same,"Intracellular Ca2+ mobilization pEC50 (n = 3), CHO cells (-log of the EC50)",[7],9.13
same,"concentration giving the maximum percentage of cell migration, PMN chemotaxis",[7],1 µM
same,"pEC50, [Ca2+]i mobilization in PMNs (-log of the EC50)",[7],7.42
same,pIC50 (-log of the IC50),[8],7.97
B1,[125I]-W-peptide (WKYMVm) Displacement pIC50 (n = 3),FPRL-1 [1],<5.52
same,[125I]-W-peptide (WKYMVm) Displacement pIC50 (n = 3),FPRL-1 [1]; listed as SAA,< 5.52
same,Intracellular Ca2+ mobilization pEC50 (n = 3),FPRL-1 [2]; [10],6.88 ± 0.07
same,"Adenylyl cylase pIC50 (inhibition of forskolin-stimulated cAMP accumulation), CHO cells (-log of the IC50)",[9],6.38 and 6.48
same,"Intracellular Ca2+ mobilization pEC50 (n = 3), CHO cells (-log of the EC50)",[9],6.88
same,"pEC50, [Ca2+]i mobilization in PMNs (-log of the EC50)",[9],< 5.7
same,pEC50,PMNs [3],<5.7 (n = 3)
same,Adenylyl cylase pIC50,FPRL-1 [4],6.38 and 6.48
